B1: MacroGreen (Af1521-c007), Af1521 K35E,G42E,I144R,Y145R fused to GFP (other, Archaeoglobus fulgidus, UniProt O28751 1-192, looked up)
chain: MEVLFEAKVGDITLKLAQGDITQYPAKAIVNAANERLEHGGEVAYAIAKACAGDAGLYTEISKKAMREQFGRDYIDHGEVVVTPAMNLEERGIKYVFHTVGPICSGMWSEELKEKLYKAFLGPLEKAEEMGVESIAFPAVSAGRRGCDLEKVVETFLEAVKNFKGSAVKEVALVIYDRKSAEVALKVFERSL
notes: Archaeoglobus fulgidus macrodomain protein Af1521, full length, with K35E, G42E, I144R, Y145R; Synthetic codon-optimised cDNA in a pNIC28 derived vector; also called GFP-fusion quadruple mutant; source: E. coli BL21(DE3)T1R pRARE2, purified (IMAC, SEC); not shown: eGFP, C-terminal, kept

What was measured:
[1] = biological target: T1, PARylated PARP1 (auto-modified catalytic domain construct) (UniProt P09874 662-1011, auto-poly-ADP-ribosylated (PARylated) predominantly on carboxylic acid side chains; sites not given); experiment: far-Western, overlay or dot blot; overlay in multiwell plates: MAR- or PARylated protein adsorbed to protein binding 96-well plates (MaxiSorp), blocked with 1% BSA, overlaid with the macrodomain-GFP fusion (1 µM in Fig. 2) in TBST pH 7.5 for 5 min at room temperature, washed, GFP fluorescence read; conditions: both partners purified
T1 construct: PARP1 catalytic domain construct, PARP1 662-1011; also called PARP1 662-1011; source: auto-modified with 1 mM NAD+
T1 sequence (P09874 662-1011): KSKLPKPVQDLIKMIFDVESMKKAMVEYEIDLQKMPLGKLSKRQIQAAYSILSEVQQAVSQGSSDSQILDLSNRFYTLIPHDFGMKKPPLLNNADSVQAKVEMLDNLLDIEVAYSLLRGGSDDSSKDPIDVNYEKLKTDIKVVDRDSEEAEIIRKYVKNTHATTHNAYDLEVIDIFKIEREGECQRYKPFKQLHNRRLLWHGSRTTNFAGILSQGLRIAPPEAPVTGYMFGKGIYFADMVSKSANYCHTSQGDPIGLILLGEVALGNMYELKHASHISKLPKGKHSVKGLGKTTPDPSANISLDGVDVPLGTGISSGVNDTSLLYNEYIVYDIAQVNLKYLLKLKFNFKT

[2] = biological target: B1; experiment: SPR; MacroGreen covalently immobilised, auto-MARylated PARP10 catalytic domain flowed over; apparent KD from the kinetics of binding and unbinding; conditions: both partners purified

| Binder | binding result [1] | Kd [2] [nM] | stoichiometry N [2] |
| --- | --- | --- | --- |
| Af1521-c001, wild type Af1521 fused to GFP (other, Archaeoglobus fulgidus, UniProt O28751 1-192, looked up, Archaeoglobus fulgidus macrodomain protein Af1521, full length, wild type; pNIC28 derived vector; also called Af1521-GFP; wild type Af1521-GFP fusion; source: E. coli BL21(DE3)T1R pRARE2, purified (IMAC, SEC); not shown: eGFP, C-terminal, kept) MEVLFEAKVGDITLKLAQGDITQYPAKAIVNAANKRLEHGGGVAYAIAKACAGDAGLYTEISKKAMREQFGRDYIDHGEVVVTPAMNLEERGIKYVFHTVGPICSGMWSEELKEKLYKAFLGPLEKAEEMGVESIAFPAVSAGIYGCDLEKVVETFLEAVKNFKGSAVKEVALVIYDRKSAEVALKVFERSL | binds |  |  |
| B1 | binds |  |  |
| auto-MARylated PARP10 catalytic domain (domain or fragment, UniProt Q53GL7 819-1007, looked up, auto-mono-ADP-ribosylated (MARylated) on glutamic and aspartic acid, serine, lysine and arginine side chains; sites not given, PARP10 catalytic domain, construct PARP10 819-1007; also called PARP10 819-1007; source: auto-modified with NAD+) NLERLAENTGEFQEVVRAFYDTLDAARSSIRVVRVERVSHPLLQQQYELYRERLLQRCERRPVEQVLYHGTTAPAVPDICAHGFNRSFCGRNATVYGKGVYFARRASLSVQDRYSPPNADGHKAVFVARVLTGDYGQGRRGLRAPPLRGPGHVLLRYDSAVDCICQPSIFVIFHDTQALPTHLITCEHV |  | 30 | 1 |

Reference: article PMC8319303, “MacroGreen, a simple tool for detection of ADP-ribosylated proteins” (Communications Biology, 2021)
